Experimental data: patent US20230235013A1 (MABSOLVE, published 2023)

T1: mouse FcRn (Sino Biological Cat. No. CT029-M08H) (mouse, UniProt Q61559 22-297; P01887 21-119)
T1 construct: Bought protein, captured on an anti-histidine chip
T1 sequence (looked up): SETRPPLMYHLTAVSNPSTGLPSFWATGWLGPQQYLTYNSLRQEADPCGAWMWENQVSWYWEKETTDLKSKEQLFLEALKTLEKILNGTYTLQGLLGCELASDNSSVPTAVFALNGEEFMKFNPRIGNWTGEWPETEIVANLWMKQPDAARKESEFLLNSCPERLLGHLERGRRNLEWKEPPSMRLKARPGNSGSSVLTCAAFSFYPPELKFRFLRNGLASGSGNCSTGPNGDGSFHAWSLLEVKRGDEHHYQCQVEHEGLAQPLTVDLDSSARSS
T1 sequence (b2m, looked up): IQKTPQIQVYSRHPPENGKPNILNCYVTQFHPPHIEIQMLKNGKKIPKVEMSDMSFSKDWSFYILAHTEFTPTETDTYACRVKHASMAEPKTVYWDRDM

B1: anti-CD20 (rituximab) human IgG1 L234A/L235A/P329G (LALAPG reference) (antibody)
heavy: not shown
light: QIVLSQSPAILSASPGEKVTMTCRASSSVSYIHWFQQKPGSSPKPWIYATSNLASGVPVRFSGSGSGTSYSLTISRVEAEDAATYYCQQWTSNPPTFGGGTKLEIKRTVAAPSVFIFPPSDEQLKSGTASVVCLLNNFYPREAKVQWKVDNALQSGNSQESVTEQDSKDSTYSLSSTLTLSKADYEKHKVYACEVTHQGLSSPVTKSFNRGEC
notes: EU numbering; also called 2-66; copies: 2 + 2
B2: anti-CD20 (rituximab) human IgG1 L234G/L235S/G236R (antibody)
heavy: QVQLQQPGAELVKPGASVKMSCKASGYTFTSYNMHWVKQTPGRGLEWIGAIYPGNGDTSYNQKFKGKATLTADKSSSTAYMQLSSLTSEDSAVYYCARSTYYGGDWYFNVWGAGTTVTVSSASTKGPSVFPLAPSSKSTSGGTAALGCLVKDYFPEPVTVSWNSGALTSGVHTFPAVLQSSGLYSLSSVVTVPSSSLGTQTYICNVNHKPSNTKVDKKVEPKSCDKTHTCPPCPAPEGSRGPSVFLFPPKPKDTLMISRTPEVTCVVVDVSHEDPEVKFNWYVDGVEVHNAKTKPREEQYNSTYRVVSVLTVLHQDWLNGKEYKCKVSNKALPAPIEKTISKAKGQPREPQVYTLPPSRDELTKNQVSLTCLVKGFYPSDIAVEWESNGQPENNYKTTPPVLDSDGSFFLYSKLTVDKSRWQQGNVFSCSVMHEALHNHYTQKSLSLSPGK
light: QIVLSQSPAILSASPGEKVTMTCRASSSVSYIHWFQQKPGSSPKPWIYATSNLASGVPVRFSGSGSGTSYSLTISRVEAEDAATYYCQQWTSNPPTFGGGTKLEIKRTVAAPSVFIFPPSDEQLKSGTASVVCLLNNFYPREAKVQWKVDNALQSGNSQESVTEQDSKDSTYSLSSTLTLSKADYEKHKVYACEVTHQGLSSPVTKSFNRGEC
notes: EU numbering; also called 2-19; 1-59; copies: 2 + 2
B3: anti-CD20 (rituximab) human IgG1 L234S/L235T/G236R (antibody)
heavy: QVQLQQPGAELVKPGASVKMSCKASGYTFTSYNMHWVKQTPGRGLEWIGAIYPGNGDTSYNQKFKGKATLTADKSSSTAYMQLSSLTSEDSAVYYCARSTYYGGDWYFNVWGAGTTVTVSSASTKGPSVFPLAPSSKSTSGGTAALGCLVKDYFPEPVTVSWNSGALTSGVHTFPAVLQSSGLYSLSSVVTVPSSSLGTQTYICNVNHKPSNTKVDKKVEPKSCDKTHTCPPCPAPESTRGPSVFLFPPKPKDTLMISRTPEVTCVVVDVSHEDPEVKFNWYVDGVEVHNAKTKPREEQYNSTYRVVSVLTVLHQDWLNGKEYKCKVSNKALPAPIEKTISKAKGQPREPQVYTLPPSRDELTKNQVSLTCLVKGFYPSDIAVEWESNGQPENNYKTTPPVLDSDGSFFLYSKLTVDKSRWQQGNVFSCSVMHEALHNHYTQKSLSLSPGK
light: QIVLSQSPAILSASPGEKVTMTCRASSSVSYIHWFQQKPGSSPKPWIYATSNLASGVPVRFSGSGSGTSYSLTISRVEAEDAATYYCQQWTSNPPTFGGGTKLEIKRTVAAPSVFIFPPSDEQLKSGTASVVCLLNNFYPREAKVQWKVDNALQSGNSQESVTEQDSKDSTYSLSSTLTLSKADYEKHKVYACEVTHQGLSSPVTKSFNRGEC
notes: EU numbering; also called 2-52; 1-150; copies: 2 + 2
B4: anti-CD20 (rituximab) human IgG1 L234A/L235S/G236R (antibody)
heavy: not shown
light: QIVLSQSPAILSASPGEKVTMTCRASSSVSYIHWFQQKPGSSPKPWIYATSNLASGVPVRFSGSGSGTSYSLTISRVEAEDAATYYCQQWTSNPPTFGGGTKLEIKRTVAAPSVFIFPPSDEQLKSGTASVVCLLNNFYPREAKVQWKVDNALQSGNSQESVTEQDSKDSTYSLSSTLTLSKADYEKHKVYACEVTHQGLSSPVTKSFNRGEC
notes: EU numbering; also called 2-4; 1-14; copies: 2 + 2
B5: anti-CD20 (rituximab) human IgG1 L234Q/L235S/G236R (antibody)
heavy: QVQLQQPGAELVKPGASVKMSCKASGYTFTSYNMHWVKQTPGRGLEWIGAIYPGNGDTSYNQKFKGKATLTADKSSSTAYMQLSSLTSEDSAVYYCARSTYYGGDWYFNVWGAGTTVTVSSASTKGPSVFPLAPSSKSTSGGTAALGCLVKDYFPEPVTVSWNSGALTSGVHTFPAVLQSSGLYSLSSVVTVPSSSLGTQTYICNVNHKPSNTKVDKKVEPKSCDKTHTCPPCPAPEQSRGPSVFLFPPKPKDTLMISRTPEVTCVVVDVSHEDPEVKFNWYVDGVEVHNAKTKPREEQYNSTYRVVSVLTVLHQDWLNGKEYKCKVSNKALPAPIEKTISKAKGQPREPQVYTLPPSRDELTKNQVSLTCLVKGFYPSDIAVEWESNGQPENNYKTTPPVLDSDGSFFLYSKLTVDKSRWQQGNVFSCSVMHEALHNHYTQKSLSLSPGK
light: QIVLSQSPAILSASPGEKVTMTCRASSSVSYIHWFQQKPGSSPKPWIYATSNLASGVPVRFSGSGSGTSYSLTISRVEAEDAATYYCQQWTSNPPTFGGGTKLEIKRTVAAPSVFIFPPSDEQLKSGTASVVCLLNNFYPREAKVQWKVDNALQSGNSQESVTEQDSKDSTYSLSSTLTLSKADYEKHKVYACEVTHQGLSSPVTKSFNRGEC
notes: EU numbering; also called 2-33; 10.77; copies: 2 + 2

Key:
[1] = target: T2, human FcRn (R&D Systems Cat. No. 8639-Fc) (human, UniProt P55899 24-297; P61769 21-119); experiment: SPR, FcRn captured; Mean
[2] = target: T2, human FcRn (R&D Systems Cat. No. …); experiment: SPR, FcRn captured; Expt 1
[3] = target: T2, human FcRn (R&D Systems Cat. No. …); experiment: SPR, FcRn captured; Expt 2
[4] = target: T2, human FcRn (R&D Systems Cat. No. …); experiment: SPR, FcRn captured; Expt 3
[5] = target: T3, Human C1q (Sigma Cat. No. 20476), HRP-labelled (human, UniProt P02745 23-245; P02746 28-253; P02747 29-245); experiment: ELISA, antibody coated, HRP-C1q; Expt 2, buffer alone 0.091
T3 construct: Coupled to horse-radish peroxidase with Lightning-Link kit; also called HRP-labelled C1q

[6] = target: T3, Human C1q (Sigma Cat. No. 20476), …; experiment: ELISA, antibody coated, HRP-C1q; Expt 3, buffer alone 0.102
[7] = target: T4, C-terminus biotinylated human FcRn attached to Streptavidin-SmBiT (FcRn-SAv-SmBiT) (human, UniProt P55899 24-297; P61769 21-119, limits assumed, C-terminus biotinylated (AviTag), attached to Streptavidin-SmBiT); experiment: NanoBiT FcRn competition immunoassay, competitor Tracer-LgBiT human IgG, pH 6.0
T4 construct: Kit reagent; also called hFcRn-AviTag

[8] = target: T3, Human C1q (Sigma Cat. No. 20476), …; experiment: ELISA, antibody coated, HRP-C1q; Expt 1, buffer alone 0.061
[9] = target: T2, human FcRn (R&D Systems Cat. No. …); experiment: SPR, FcRn captured via anti-His, pH 6.0;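 also: SPR binding signal relative to the reference cell, corrected by subtracting the response of a blank sample of running buffer alone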
[10] = target: T5, cynomolgus monkey FcRn (Sino Biological Cat. No. CT031-C08H) (cynomolgus monkey, UniProt Q8SPV9 24-297; Q8SPW0 21-119); experiment: SPR, FcRn captured via anti-His, pH 6.0;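 also: SPR binding signal relative to the reference cell, corrected by subtracting the response of a blank sample of running buffer alone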
T5 construct: Bought protein, captured on an anti-histidine chip; also called cynomolgus FcRn

[11] = target: T1, mouse FcRn (Sino Biological Cat. No. …); experiment: SPR, FcRn captured via anti-His, pH 6.0;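 also: SPR binding signal relative to the reference cell, corrected by subtracting the response of a blank sample of running buffer alone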

Binder	Corrected and normalised response (% of wild-type reference) [1]	Corrected and normalised response (% of wild-type reference) [2]	Corrected and normalised response (% of wild-type reference) [3]	Corrected and normalised response (% of wild-type reference) [4]	Mean Absorbance [5]	Mean Absorbance [6]	Mean binding activity (% of wild-type reference) [7]	Mean Absorbance [8]	Corrected response (RU) [9] [RU]	Corrected response (RU) [10] [RU]	Corrected response (RU) [11] [RU]
B1	95.1 % of wild-type reference	95.1 % of wild-type reference	96.4 % of wild-type reference	93.6 % of wild-type reference	0.08 absorbance (450 nm)	0.103 absorbance (450 nm)	96.7 % of wild-type reference				
B2	96.3 % of wild-type reference	97.1 % of wild-type reference	96 % of wild-type reference	95.7 % of wild-type reference	0.091 absorbance (450 nm)	0.064 absorbance (450 nm)	77.8 % of wild-type reference	0.052 absorbance (450 nm)			
B3	96.6 % of wild-type reference	98.3 % of wild-type reference	97.9 % of wild-type reference	93.7 % of wild-type reference	0.079 absorbance (450 nm)	0.083 absorbance (450 nm)	98.6 % of wild-type reference	0.047 absorbance (450 nm)			
B4	96 % of wild-type reference	96.5 % of wild-type reference	95.7 % of wild-type reference	95.8 % of wild-type reference	0.1 absorbance (450 nm)	0.095 absorbance (450 nm)		0.041 absorbance (450 nm)	539	1260	146
B5	98.1 % of wild-type reference	98.4 % of wild-type reference	97.8 % of wild-type reference	98.2 % of wild-type reference	0.084 absorbance (450 nm)	0.083 absorbance (450 nm)		0.026 absorbance (450 nm)	535	1230	166
